Assay results taken from patent US20220396615A1 (NANJING GENSCRIPT BIOTECH, published 2022).

What was measured:
[1] = molecular target: T1, Tag-free human IL6 recombinant protein (GenScript, Cat. No. Z03034) (human, UniProt P05231 30-212); test: indirect ELISA, IL6 coated at 0.5 µg/ml, antibody titrated
T1 construct: Bought recombinant protein; The catalogue number is printed only for the immunogen, and the assays say only 'recombinant IL6 protein' or 'IL6'; also called recombinant IL6 protein; Interleukin 6
Protocol: The purified antibodies were evaluated for the binding ability to IL6 by indirect ELISA. The ELISA plate (Nunc) was coated with 0.5 μg/ml recombinant IL6 protein in PBS at 100 μl/well at 4° C. overnight. The plate was washed with PBS-T (0.05% Tween) and was blocked with PBST containing 1% BSA at 200 μl/well at 37° C. for 0.5 h. The blocking solution was then discarded. 100 μl 10 μg/ml purified antibody was added to the first well, and 3-fold gradient dilution was performed for 11 test concentration gradients in total. Incubation was then performed at room temperature for 1 h. The plate was washed with PBST for three times and incubated with horseradish peroxidase-conjugated goat anti-mouse/rat IgG (Fab-specific) (GenScript) at 100 μl/well at 37° C. for 0.5 h. The plate was washed with PBST for five times, and TMB chromogenic solution (GenScript) was then added and incubation was performed in dark for 15 min at room temperature. The reaction was stopped by adding 50 μl 1M HCl stop solution (Sigma). The plate was read at 450 nm by a microplate reader. The binding ability of the clones 8H10B7E6, 23A9H3, 29D6B5, 41A10B8, 49F10H6, 53A2F9 (rat), and 61G1D8 (rat) for recombinant protein IL6 was shown in FIG. 3.

[2] = molecular target: T1, Tag-free human IL6 recombinant protein …; test: cell-based or functional assay

EC50 [1]	inhibitory IC50, IL6-dependent TF-1 cell proliferation [2]	Binder
< 0.025 µg/mL	4.54 µg/mL	61G1D8 (rat) (antibody, V domains shown, Rat hybridoma clone; Made recombinantly in HEK293-6E cells as variable region + constant region and purified on protein A as IgG) VH: EVQLLESGGGLVQPGRSMKLSCAASGFTFSSFPMAWVRQTPSKALEWVATISPSGGTSYSRDSVKGRFTISRDNANSTLCLHMDSLKSEDTATYYCLRERIYNTYFDYWGQGVMVTVSS VL: DIRMTHSPASLSASLGETVSIECLPSEDISSDLAWYQQKPGKSPQLLIYNANTLPNGVPSRFSGSRSGAQYFLKINSLQSEDVATYFCQQYDSYPYTFGTGTKLELK
< 0.025 µg/mL	–	23A9H3 (antibody, V domains shown, Mouse hybridoma clone; Made recombinantly in HEK293-6E cells as variable region + constant region and purified on protein A as IgG) VH: QVQLQQSGAELAKPGASVKMSCKTSGYTFTNYWMHWVKQRPGQGLEWIGYVIPSTGYTDYNQSFKDKATLTADKSSNTAYMQVNSLTSEDSAVYYCASLLPGFAYWGQGTLVTVSA VL: DVVMTQTPLSLPVSLGDQASISCRSSQSLVDSNGNTYLHWYLQKPGQSPKLLIYKVSNRFSGVPDRFSGSGSGTDFTLKISRVEAEDLGVYFCSQSTHVPPTFGGGTKLEIK
< 0.025 µg/mL	–	29D6B5 (antibody, V domains shown, Mouse hybridoma clone; Made recombinantly in HEK293-6E cells as variable region + constant region and purified on protein A as IgG) VH: QVQLQQSGAELAEPGASVKMSCKASGYNFNNYWMHWVKQGPGQGLEWIGYIDPRTASIYYNQKFKDKATLTADKSSSTAYMQLSSLTSEDSAVYYCARILYGKYDVWGAGTTVIVSS VL: DVVLTQTPLSLPVSLGNQASISCRSSQSLVDSNGNTYLHWYLQKPGQSPKVLIHKVSNRFSGVPDRFSGSGSGTDFTLKISRVEAEDLGVYFCSQSTHVPPTFGGGTKLEIK
< 0.025 µg/mL	–	41A10B8 (antibody, V domains shown, Mouse hybridoma clone; Made recombinantly in HEK293-6E cells as variable region + constant region and purified on protein A as IgG) VH: EVKLEESGGGLVQPGGSMKLSCAASGFTFSDAWMDWVRQSPDKGLEWVAEIRSKTYHPATYYTKSVRGRFTISRDDSKSSVYLQMNNLGAEDTGIYYCTRPRYYGGYFDYWGQGTTLTVSS VL: not shown
40 pM	3.95 µg/mL	53A2F9 (rat) (antibody, V domains shown, Rat hybridoma clone; Made recombinantly in HEK293-6E cells as variable region + constant region and purified on protein A as IgG) VH: QVQLKESGPGLVQPSQTLSLTCTVSGFSLTSHTVSWIRQPPGRGLEWMGKMWSNGDTDYDSAIRSRLSITRDTSKSQVFLKINSLQTEDTAMYFCARYYFSSYGGGYFDYWGQGVMVTVSS VL: DTVLTQSPALAVSLGQRVTISCRASKSVSTYMHWYQQKSGQQPKLLIYSASNLESGVPSRFSGSGSGTDFTLTIDPVEADDIANYYCQQSDELPDTFGAGTKLELK
< 0.025 µg/mL	–	49F10H6 (antibody, V domains shown, Mouse hybridoma clone; Made recombinantly in HEK293-6E cells as variable region + constant region and purified on protein A as IgG) VH: QVQLQQPGAELVKPGASVKMSCKASGYTFTNYIIHWIKQTPGQGLEWIGAIYPGNGDTSYSQKFKDKATLTADRSSSTAYMQLSSLTSEDSAVYYCARGDAGYSAWFAYWGQGTLVTVSA VL: NIVLTQSPASLAVSLGQRATISCSASESVDSYGNNFMHWYQQRPGQPPKLLIYLASKLESGVPARFSGSGSRTEFTLTIDPVEAEDAATYYCQQNNEDPLTFGAGTKLELK
